Source: US20210032299A1 (Eli Lilly, published 2021)
Starred links: 1 amine or outer side, 2 acyl side, 3 side chain; linkers in the order of their positions; H or OH if unused. Non-standard residues stand in square brackets, D forms with d. Groups on a side chain read outwards from the residue. No end group written: not given here. *: point of attachment. C20 diacid = O=C(O)CCCCCCCCCCCCCCCCCCC(=O)*; αMePhe(2-F) = C[C@](N)(Cc1ccccc1F)C(=O)O; γGlu = O=C(O)[C@H](CCC(=O)[*:2])N[*:1]; αMeF = C[C@](N)(Cc1ccccc1)C(=O)O; 4Pal = N[C@@H](Cc1ccncc1)C(=O)O; AEEA = NCCOCCOCC(=O)O; Aib = CC(C)(N)C(=O)O

T1: human glucose-dependent insulinotropic peptide receptor (human, UniProt P48546 22-466)
T1 sequence (looked up): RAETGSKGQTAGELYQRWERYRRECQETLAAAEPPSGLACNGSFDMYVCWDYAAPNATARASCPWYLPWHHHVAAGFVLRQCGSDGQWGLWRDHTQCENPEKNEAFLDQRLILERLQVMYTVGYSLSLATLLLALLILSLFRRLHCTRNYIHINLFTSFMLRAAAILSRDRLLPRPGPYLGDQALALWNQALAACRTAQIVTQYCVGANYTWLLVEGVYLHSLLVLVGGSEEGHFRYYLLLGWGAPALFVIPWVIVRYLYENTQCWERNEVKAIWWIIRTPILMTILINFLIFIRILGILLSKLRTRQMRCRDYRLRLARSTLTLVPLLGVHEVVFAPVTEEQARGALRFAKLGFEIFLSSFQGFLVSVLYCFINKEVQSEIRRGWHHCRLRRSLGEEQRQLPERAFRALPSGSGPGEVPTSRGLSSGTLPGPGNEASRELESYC

B1: Example 36 (peptide)
peptide: Y[Aib]EGT[αMePhe(2-F)]ISDYSIALDKK([AEEA-AEEA-γGlu-C20 diacid])HQ[Aib]DFVEYLLETGPSSGAPPPS-NH2
modifications: N-terminus assumed
SMILES: CC[C@H](C)[C@H](NC(=O)[C@H](CO)NC(=O)[C@H](Cc1ccc(O)cc1)NC(=O)[C@H](CC(=O)O)NC(=O)[C@H](CO)NC(=O)[C@@H](NC(=O)[C@](C)(Cc1ccccc1F)NC(=O)[C@@H](NC(=O)CNC(=O)[C@H](CCC(=O)O)NC(=O)C(C)(C)NC(=O)[C@@H](N)Cc1ccc(O)cc1)[C@@H](C)O)[C@@H](C)CC)C(=O)N[C@@H](C)C(=O)N[C@@H](CC(C)C)C(=O)N[C@@H](CC(=O)O)C(=O)N[C@@H](CCCCN)C(=O)N[C@@H](CCCCNC(=O)COCCOCCNC(=O)COCCOCCNC(=O)CC[C@H](NC(=O)CCCCCCCCCCCCCCCCCCC(=O)O)C(=O)O)C(=O)N[C@@H](Cc1c[nH]cn1)C(=O)N[C@@H](CCC(N)=O)C(=O)NC(C)(C)C(=O)N[C@@H](CC(=O)O)C(=O)N[C@@H](Cc1ccccc1)C(=O)N[C@H](C(=O)N[C@@H](CCC(=O)O)C(=O)N[C@@H](Cc1ccc(O)cc1)C(=O)N[C@@H](CC(C)C)C(=O)N[C@@H](CC(C)C)C(=O)N[C@@H](CCC(=O)O)C(=O)N[C@H](C(=O)NCC(=O)N1CCC[C@H]1C(=O)N[C@@H](CO)C(=O)N[C@@H](CO)C(=O)NCC(=O)N[C@@H](C)C(=O)N1CCC[C@H]1C(=O)N1CCC[C@H]1C(=O)N1CCC[C@H]1C(=O)N[C@@H](CO)C(N)=O)[C@@H](C)O)C(C)C
B2: Example 37 (peptide)
peptide: Y[Aib]EGT[αMePhe(2-F)]ISDYSIALDKK([AEEA-AEEA-γGlu-C20 diacid])HQ[Aib]DFVEYLLEGGPSSGAPPPS-NH2
modifications: N-terminus assumed
SMILES: CC[C@H](C)[C@H](NC(=O)[C@H](CO)NC(=O)[C@H](Cc1ccc(O)cc1)NC(=O)[C@H](CC(=O)O)NC(=O)[C@H](CO)NC(=O)[C@@H](NC(=O)[C@](C)(Cc1ccccc1F)NC(=O)[C@@H](NC(=O)CNC(=O)[C@H](CCC(=O)O)NC(=O)C(C)(C)NC(=O)[C@@H](N)Cc1ccc(O)cc1)[C@@H](C)O)[C@@H](C)CC)C(=O)N[C@@H](C)C(=O)N[C@@H](CC(C)C)C(=O)N[C@@H](CC(=O)O)C(=O)N[C@@H](CCCCN)C(=O)N[C@@H](CCCCNC(=O)COCCOCCNC(=O)COCCOCCNC(=O)CC[C@H](NC(=O)CCCCCCCCCCCCCCCCCCC(=O)O)C(=O)O)C(=O)N[C@@H](Cc1c[nH]cn1)C(=O)N[C@@H](CCC(N)=O)C(=O)NC(C)(C)C(=O)N[C@@H](CC(=O)O)C(=O)N[C@@H](Cc1ccccc1)C(=O)N[C@H](C(=O)N[C@@H](CCC(=O)O)C(=O)N[C@@H](Cc1ccc(O)cc1)C(=O)N[C@@H](CC(C)C)C(=O)N[C@@H](CC(C)C)C(=O)N[C@@H](CCC(=O)O)C(=O)NCC(=O)NCC(=O)N1CCC[C@H]1C(=O)N[C@@H](CO)C(=O)N[C@@H](CO)C(=O)NCC(=O)N[C@@H](C)C(=O)N1CCC[C@H]1C(=O)N1CCC[C@H]1C(=O)N1CCC[C@H]1C(=O)N[C@@H](CO)C(N)=O)C(C)C
B3: Example 38 (peptide)
peptide: Y[Aib]EGT[αMePhe(2-F)]ISDYSIALDKK([AEEA-AEEA-γGlu-C20 diacid])HQ[Aib]DFVE[4Pal]LLETGPSSGAPPPS-NH2
modifications: N-terminus assumed
SMILES: CC[C@H](C)[C@H](NC(=O)[C@H](CO)NC(=O)[C@H](Cc1ccc(O)cc1)NC(=O)[C@H](CC(=O)O)NC(=O)[C@H](CO)NC(=O)[C@@H](NC(=O)[C@](C)(Cc1ccccc1F)NC(=O)[C@@H](NC(=O)CNC(=O)[C@H](CCC(=O)O)NC(=O)C(C)(C)NC(=O)[C@@H](N)Cc1ccc(O)cc1)[C@@H](C)O)[C@@H](C)CC)C(=O)N[C@@H](C)C(=O)N[C@@H](CC(C)C)C(=O)N[C@@H](CC(=O)O)C(=O)N[C@@H](CCCCN)C(=O)N[C@@H](CCCCNC(=O)COCCOCCNC(=O)COCCOCCNC(=O)CC[C@H](NC(=O)CCCCCCCCCCCCCCCCCCC(=O)O)C(=O)O)C(=O)N[C@@H](Cc1c[nH]cn1)C(=O)N[C@@H](CCC(N)=O)C(=O)NC(C)(C)C(=O)N[C@@H](CC(=O)O)C(=O)N[C@@H](Cc1ccccc1)C(=O)N[C@H](C(=O)N[C@@H](CCC(=O)O)C(=O)N[C@@H](Cc1ccncc1)C(=O)N[C@@H](CC(C)C)C(=O)N[C@@H](CC(C)C)C(=O)N[C@@H](CCC(=O)O)C(=O)N[C@H](C(=O)NCC(=O)N1CCC[C@H]1C(=O)N[C@@H](CO)C(=O)N[C@@H](CO)C(=O)NCC(=O)N[C@@H](C)C(=O)N1CCC[C@H]1C(=O)N1CCC[C@H]1C(=O)N1CCC[C@H]1C(=O)N[C@@H](CO)C(N)=O)[C@@H](C)O)C(C)C
B4: Example 39 (peptide)
peptide: Y[Aib]EGT[αMePhe(2-F)]ISDYSIALDKK([AEEA-AEEA-γGlu-C20 diacid])HQ[Aib]DFVE[4Pal]LLEGGPSSGAPPPS-NH2
modifications: N-terminus assumed
SMILES: CC[C@H](C)[C@H](NC(=O)[C@H](CO)NC(=O)[C@H](Cc1ccc(O)cc1)NC(=O)[C@H](CC(=O)O)NC(=O)[C@H](CO)NC(=O)[C@@H](NC(=O)[C@](C)(Cc1ccccc1F)NC(=O)[C@@H](NC(=O)CNC(=O)[C@H](CCC(=O)O)NC(=O)C(C)(C)NC(=O)[C@@H](N)Cc1ccc(O)cc1)[C@@H](C)O)[C@@H](C)CC)C(=O)N[C@@H](C)C(=O)N[C@@H](CC(C)C)C(=O)N[C@@H](CC(=O)O)C(=O)N[C@@H](CCCCN)C(=O)N[C@@H](CCCCNC(=O)COCCOCCNC(=O)COCCOCCNC(=O)CC[C@H](NC(=O)CCCCCCCCCCCCCCCCCCC(=O)O)C(=O)O)C(=O)N[C@@H](Cc1c[nH]cn1)C(=O)N[C@@H](CCC(N)=O)C(=O)NC(C)(C)C(=O)N[C@@H](CC(=O)O)C(=O)N[C@@H](Cc1ccccc1)C(=O)N[C@H](C(=O)N[C@@H](CCC(=O)O)C(=O)N[C@@H](Cc1ccncc1)C(=O)N[C@@H](CC(C)C)C(=O)N[C@@H](CC(C)C)C(=O)N[C@@H](CCC(=O)O)C(=O)NCC(=O)NCC(=O)N1CCC[C@H]1C(=O)N[C@@H](CO)C(=O)N[C@@H](CO)C(=O)NCC(=O)N[C@@H](C)C(=O)N1CCC[C@H]1C(=O)N1CCC[C@H]1C(=O)N1CCC[C@H]1C(=O)N[C@@H](CO)C(N)=O)C(C)C
B5: Example 40 (peptide)
peptide: Y[Aib]EGT[αMePhe(2-F)]ISDYSIALDKK([AEEA-AEEA-γGlu-C20 diacid])HQ[Aib]DFVEWLLETGPSSGAPPPS-NH2
modifications: N-terminus assumed
SMILES: CC[C@H](C)[C@H](NC(=O)[C@H](CO)NC(=O)[C@H](Cc1ccc(O)cc1)NC(=O)[C@H](CC(=O)O)NC(=O)[C@H](CO)NC(=O)[C@@H](NC(=O)[C@](C)(Cc1ccccc1F)NC(=O)[C@@H](NC(=O)CNC(=O)[C@H](CCC(=O)O)NC(=O)C(C)(C)NC(=O)[C@@H](N)Cc1ccc(O)cc1)[C@@H](C)O)[C@@H](C)CC)C(=O)N[C@@H](C)C(=O)N[C@@H](CC(C)C)C(=O)N[C@@H](CC(=O)O)C(=O)N[C@@H](CCCCN)C(=O)N[C@@H](CCCCNC(=O)COCCOCCNC(=O)COCCOCCNC(=O)CC[C@H](NC(=O)CCCCCCCCCCCCCCCCCCC(=O)O)C(=O)O)C(=O)N[C@@H](Cc1c[nH]cn1)C(=O)N[C@@H](CCC(N)=O)C(=O)NC(C)(C)C(=O)N[C@@H](CC(=O)O)C(=O)N[C@@H](Cc1ccccc1)C(=O)N[C@H](C(=O)N[C@@H](CCC(=O)O)C(=O)N[C@@H](Cc1c[nH]c2ccccc12)C(=O)N[C@@H](CC(C)C)C(=O)N[C@@H](CC(C)C)C(=O)N[C@@H](CCC(=O)O)C(=O)N[C@H](C(=O)NCC(=O)N1CCC[C@H]1C(=O)N[C@@H](CO)C(=O)N[C@@H](CO)C(=O)NCC(=O)N[C@@H](C)C(=O)N1CCC[C@H]1C(=O)N1CCC[C@H]1C(=O)N1CCC[C@H]1C(=O)N[C@@H](CO)C(N)=O)[C@@H](C)O)C(C)C
B6: Example 41 (peptide)
peptide: Y[Aib]EGT[αMeF]ISDYSIALDKK([AEEA-AEEA-γGlu-C20 diacid])HQ[Aib]DFVE[4Pal]LLETGPSSGAPPPS-NH2
modifications: N-terminus assumed
SMILES: CC[C@H](C)[C@H](NC(=O)[C@H](CO)NC(=O)[C@H](Cc1ccc(O)cc1)NC(=O)[C@H](CC(=O)O)NC(=O)[C@H](CO)NC(=O)[C@@H](NC(=O)[C@](C)(Cc1ccccc1)NC(=O)[C@@H](NC(=O)CNC(=O)[C@H](CCC(=O)O)NC(=O)C(C)(C)NC(=O)[C@@H](N)Cc1ccc(O)cc1)[C@@H](C)O)[C@@H](C)CC)C(=O)N[C@@H](C)C(=O)N[C@@H](CC(C)C)C(=O)N[C@@H](CC(=O)O)C(=O)N[C@@H](CCCCN)C(=O)N[C@@H](CCCCNC(=O)COCCOCCNC(=O)COCCOCCNC(=O)CC[C@H](NC(=O)CCCCCCCCCCCCCCCCCCC(=O)O)C(=O)O)C(=O)N[C@@H](Cc1c[nH]cn1)C(=O)N[C@@H](CCC(N)=O)C(=O)NC(C)(C)C(=O)N[C@@H](CC(=O)O)C(=O)N[C@@H](Cc1ccccc1)C(=O)N[C@H](C(=O)N[C@@H](CCC(=O)O)C(=O)N[C@@H](Cc1ccncc1)C(=O)N[C@@H](CC(C)C)C(=O)N[C@@H](CC(C)C)C(=O)N[C@@H](CCC(=O)O)C(=O)N[C@H](C(=O)NCC(=O)N1CCC[C@H]1C(=O)N[C@@H](CO)C(=O)N[C@@H](CO)C(=O)NCC(=O)N[C@@H](C)C(=O)N1CCC[C@H]1C(=O)N1CCC[C@H]1C(=O)N1CCC[C@H]1C(=O)N[C@@H](CO)C(N)=O)[C@@H](C)O)C(C)C

How the values were obtained:
Experiment in all cases: cell-based or functional assay
human GLP-1 receptor = human GLP-1 receptor (human, UniProt P43220 24-463)
human glucagon receptor = human glucagon receptor (human, UniProt P47871 26-477)
Chain of human glucagon receptor (P47871 26-477): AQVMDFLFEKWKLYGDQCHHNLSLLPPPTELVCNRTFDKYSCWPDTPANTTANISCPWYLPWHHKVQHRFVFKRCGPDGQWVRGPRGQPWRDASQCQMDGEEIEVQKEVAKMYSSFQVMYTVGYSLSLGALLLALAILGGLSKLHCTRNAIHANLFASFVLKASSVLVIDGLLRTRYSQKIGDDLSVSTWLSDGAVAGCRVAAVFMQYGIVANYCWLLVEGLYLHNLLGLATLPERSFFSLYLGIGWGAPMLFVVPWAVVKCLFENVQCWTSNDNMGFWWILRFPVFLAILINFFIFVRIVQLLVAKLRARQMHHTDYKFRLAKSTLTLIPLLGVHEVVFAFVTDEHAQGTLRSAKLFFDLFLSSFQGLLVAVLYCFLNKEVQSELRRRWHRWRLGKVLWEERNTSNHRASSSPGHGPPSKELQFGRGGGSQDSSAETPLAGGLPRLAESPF

[1] = target: T1, human glucose-dependent insulinotropic …

| Binder | hGLP1R cAMP Rel EC50 (human GLP-1 receptor) [nM] | hGcgR cAMP Rel EC50 (human glucagon receptor) [nM] | hGIPR cAMP Rel EC50 [1] [nM] |
| --- | --- | --- | --- |
| B1 | 1080 | > 5000 | 0.0543 |
| B2 | 61.1 | > 5000 | 0.036 |
| B3 | 1390 | > 5000 | 0.0368 |
| B4 | 3330 | > 5000 | 0.0112 |
| B5 | 2330 | > 5000 | 0.033 |
| B6 | 1800 | > 5000 | 0.0281 |
